Assay results as given in US20180291083A1 (IMMATICS BIOTECHNOLOGIES, published 2018).
Blank lines part the entries; values can stand above or below the binder they belong to.

Tests used:
HLA-A*03:01 = biological target: T1, HLA-A*03:01 (human); test: UV ligand exchange ELISA; exchange yield grade
T1 construct: Peptide-receptive MHC class I monomer made by UV cleavage of a UV-sensitive ligand
Summary of the method: (§1)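 Peptide–MHC complexes formed by UV-ligand exchange, in which a UV-cleavable peptide is replaced by the test peptide. Exchange yield measured by ELISA detecting β2m of stabilised complexes captured on streptavidin, against refolded HLA-A*02:01/MLA-001 monomer standards (15-500 ng/ml); samples diluted 100-fold.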

HLA-A*01:01 = biological target: T2, HLA-A*01:01 (human); test: UV ligand exchange ELISA; exchange yield grade
T2 construct: Peptide-receptive MHC class I monomer made by UV cleavage of a UV-sensitive ligand
Summary of the method: as §1

peptide exchange yield (HLA-A*03:01): 50 to 75%
B1: RMYSQLKTLQK (peptide)
peptide: RMYSQLKTLQK

peptide exchange yield (HLA-A*01:01): 20 to 50%
B3: YSDIGHLL (peptide)
peptide: YSDIGHLL

peptide exchange yield (HLA-A*03:01): 20 to 50%
B4: SISNLVFTY (peptide)
peptide: SISNLVFTY

peptide exchange yield (HLA-A*01:01): 50 to 75%
B5: LTEGHSGNYY (peptide)
peptide: LTEGHSGNYY

peptide exchange yield (HLA-A*03:01): 20 to 50%
B9: RIKAPSRNTIQK (peptide)
peptide: RIKAPSRNTIQK

peptide exchange yield (HLA-A*03:01): 20 to 50%
B11: SVLDLSVHK (peptide)
peptide: SVLDLSVHK

peptide exchange yield (HLA-A*01:01): 20 to 50%
B12: WIGDKSFEY (peptide)
peptide: WIGDKSFEY

peptide exchange yield (HLA-A*03:01): 20 to 50%
B14: RVFPSPMRI (peptide)
peptide: RVFPSPMRI

peptide exchange yield (HLA-A*03:01): 50 to 75%
B15: RIKPPGPTAVPK (peptide)
peptide: RIKPPGPTAVPK

peptide exchange yield (HLA-A*01:01): > 75%
B17: VTEEPQRLFY (peptide)
peptide: VTEEPQRLFY

peptide exchange yield (HLA-A*01:01): 20 to 50%
B18: SVADIRNAY (peptide)
peptide: SVADIRNAY

peptide exchange yield (HLA-A*01:01): 50 to 75%
B22: RSDPGGGGLAY (peptide)
peptide: RSDPGGGGLAY

peptide exchange yield (HLA-A*03:01): 50 to 75%
B25: SVYSETSNMDK (peptide)
peptide: SVYSETSNMDK

peptide exchange yield (HLA-A*01:01): > 75%
B26: STDSAGSSY (peptide)
peptide: STDSAGSSY

peptide exchange yield (HLA-A*03:01): 20 to 50%
B27: RVYNIYIRR (peptide)
peptide: RVYNIYIRR

peptide exchange yield (HLA-A*03:01): 20 to 50%
B29: SVSSSTHFTR (peptide)
peptide: SVSSSTHFTR

peptide exchange yield (HLA-A*03:01): 20 to 50%
B33: RVLTGVFTK (peptide)
peptide: RVLTGVFTK

peptide exchange yield (HLA-A*01:01): 20 to 50%
B36: TFDLTVVSY (peptide)
peptide: TFDLTVVSY

peptide exchange yield (HLA-A*01:01): 20 to 50%
B37: YSHPQYSSY (peptide)
peptide: YSHPQYSSY

peptide exchange yield (HLA-A*03:01): 20 to 50%
B38: TTVPHVFSK (peptide)
peptide: TTVPHVFSK

peptide exchange yield (HLA-A*01:01): 50 to 75%
B41: YVDAGTPMY (peptide)
peptide: YVDAGTPMY

peptide exchange yield (HLA-A*03:01): 20 to 50%
B43: SVAHLLSKY (peptide)
peptide: SVAHLLSKY

peptide exchange yield (HLA-A*03:01): 50 to 75%
B45: VVFPFPVNK (peptide)
peptide: VVFPFPVNK

peptide exchange yield (HLA-A*03:01): 20 to 50%
B49: SVFEGDSIVLK (peptide)
peptide: SVFEGDSIVLK

peptide exchange yield (HLA-A*01:01): 20 to 50%
B51: YINPAKLTPY (peptide)
peptide: YINPAKLTPY

peptide exchange yield (HLA-A*01:01): > 75%
B52: VTEGVAQTSFY (peptide)
peptide: VTEGVAQTSFY

peptide exchange yield (HLA-A*03:01): 10 to 20%
B53: RSKEYIRKK (peptide)
peptide: RSKEYIRKK

The next lines start with the binder.

B2: ALDQNKMHY (peptide)
peptide: ALDQNKMHY
peptide exchange yield (HLA-A*01:01): 50 to 75%

B6: GTDVLSTRY (peptide)
peptide: GTDVLSTRY
peptide exchange yield (HLA-A*01:01): 50 to 75%

B7: KATGAATPK (peptide)
peptide: KATGAATPK
peptide exchange yield (HLA-A*03:01): 20 to 50%

B8: AAADHHSLY (peptide)
peptide: AAADHHSLY
peptide exchange yield (HLA-A*01:01): 50 to 75%

B10: KVYDPVSEY (peptide)
peptide: KVYDPVSEY
peptide exchange yield (HLA-A*03:01): 20 to 50%

B13: ATGAATPKK (peptide)
peptide: ATGAATPKK
peptide exchange yield (HLA-A*03:01): 50 to 75%

B16: KTLPAMLGTGK (peptide)
peptide: KTLPAMLGTGK
peptide exchange yield (HLA-A*03:01): 20 to 50%

B19: KARKSAGAAK (peptide)
peptide: KARKSAGAAK
peptide exchange yield (HLA-A*03:01): 50 to 75%

B20: ISEAGKDLLY (peptide)
peptide: ISEAGKDLLY
peptide exchange yield (HLA-A*01:01): 50 to 75%

B21: KLMETSMGF (peptide)
peptide: KLMETSMGF
peptide exchange yield (HLA-A*03:01): 20 to 50%

B23: LLWHWDTTQSLK (peptide)
peptide: LLWHWDTTQSLK
peptide exchange yield (HLA-A*03:01): 10 to 20%

B24: ATDIVDSQY (peptide)
peptide: ATDIVDSQY
peptide exchange yield (HLA-A*01:01): 50 to 75%

B28: KLNPQQAPLY (peptide)
peptide: KLNPQQAPLY
peptide exchange yield (HLA-A*03:01): 20 to 50%

B30: FMDSESFYY (peptide)
peptide: FMDSESFYY
peptide exchange yield (HLA-A*01:01): 10 to 20%

B31: LTDSEKGNSY (peptide)
peptide: LTDSEKGNSY
peptide exchange yield (HLA-A*01:01): 50 to 75%

B32: KAFNQSSTLTK (peptide)
peptide: KAFNQSSTLTK
peptide exchange yield (HLA-A*03:01): 50 to 75%

B34: LLNRHILAH (peptide)
peptide: LLNRHILAH
peptide exchange yield (HLA-A*03:01): 50 to 75%

B35: HVDQDLTTY (peptide)
peptide: HVDQDLTTY
peptide exchange yield (HLA-A*01:01): 20 to 50%

B39: ATKSPAKPK (peptide)
peptide: ATKSPAKPK
peptide exchange yield (HLA-A*03:01): 50 to 75%

B40: HSYSSPSTK (peptide)
peptide: HSYSSPSTK
peptide exchange yield (HLA-A*03:01): 50 to 75%

B42: GLLEEALFY (peptide)
peptide: GLLEEALFY
peptide exchange yield (HLA-A*03:01): 20 to 50%

B44: ATYNKQPMYR (peptide)
peptide: ATYNKQPMYR
peptide exchange yield (HLA-A*03:01): 50 to 75%

B46: KAKAAAKPK (peptide)
peptide: KAKAAAKPK
peptide exchange yield (HLA-A*03:01): 20 to 50%

B47: KAKKPAGAAK (peptide)
peptide: KAKKPAGAAK
peptide exchange yield (HLA-A*03:01): 50 to 75%

B48: ASTTVLALK (peptide)
peptide: ASTTVLALK
peptide exchange yield (HLA-A*03:01): 20 to 50%

B50: ITDIHIKY (peptide)
peptide: ITDIHIKY
peptide exchange yield (HLA-A*01:01): > 75%

B54: KTSNIVKIK (peptide)
peptide: KTSNIVKIK
peptide exchange yield (HLA-A*03:01): 20 to 50%
